# Source: patent US20060257938A1, “Method of screening for drugs that block ligand binding to a lipid binding protein” (priority 2005, published 2006)
# Substitutions are numbered along the chain they refer to. Names may count otherwise.
# B1: L2P22H10: FABP probe, substitutions M18I F55G A73M vs SEQ ID NO: 2 (protein, listed as Rattus norvegicus)
# chain: AFDGTWKVDRNENYEKFIEKMGINVVKRKLGAHDNLKLTITQEGNKFTVKESSNGRNIDVVFELGVDFAYSLMDGTELTGTWTMEGNKLVGKFKRVDNGKELIAVREISGNELIQTYTYEGVEAKRIFKKE
# modifications: PEPTIDE (1)...(131) wild-type rat intestinal fatty acid binding protein
# B2: L2P21G3: FABP probe, substitutions M18I G31M F55M vs SEQ ID NO: 2 (protein, listed as Rattus norvegicus)
# chain: B1 chain with G31M, G55M, M73A
# modifications: PEPTIDE (1)...(131) wild-type rat intestinal fatty acid binding protein
# B3: L2P22E6: FABP probe, substitutions M18V G31A F55I A73W vs SEQ ID NO: 2 (protein, listed as Rattus norvegicus)
# chain: B1 chain with I18V, G31A, G55I, M73W
# modifications: PEPTIDE (1)...(131) wild-type rat intestinal fatty acid binding protein
# B4: L2P8A5: FABP probe, substitutions M18V G31A F55W A73W vs SEQ ID NO: 2 (protein, listed as Rattus norvegicus)
# chain: B1 chain with I18V, G31A, G55W, M73W
# modifications: PEPTIDE (1)...(131) wild-type rat intestinal fatty acid binding protein
# B5: L2P11B4: FABP probe, substitutions M18V G31A A73W vs SEQ ID NO: 2 (protein, listed as Rattus norvegicus)
# chain: B1 chain with I18V, G31A, G55F, M73W
# modifications: PEPTIDE (1)...(131) wild-type rat intestinal fatty acid binding protein
# B6: L2P17H10: FABP probe, substitutions M18G G31F A73L vs SEQ ID NO: 2 (protein, listed as Rattus norvegicus)
# chain: B1 chain with I18G, G31F, G55F, M73L
# modifications: PEPTIDE (1)...(131) wild-type rat intestinal fatty acid binding protein
# B7: L2P8A6: FABP probe, substitutions M18I G31V F55V A73V vs SEQ ID NO: 2 (protein, listed as Rattus norvegicus)
# chain: B1 chain with G31V, G55V, M73V
# modifications: PEPTIDE (1)...(131) wild-type rat intestinal fatty acid binding protein
# B8: L2P7F4: FABP probe, substitutions M18V G31V A73I vs SEQ ID NO: 2 (protein, listed as Rattus norvegicus)
# chain: B1 chain with I18V, G31V, G55F, M73I
# modifications: PEPTIDE (1)...(131) wild-type rat intestinal fatty acid binding protein
# B9: L2P23G7: FABP probe, substitutions M18V G31F F55L vs SEQ ID NO: 2 (protein, listed as Rattus norvegicus)
# chain: B1 chain with I18V, G31F, G55L, M73A
# modifications: PEPTIDE (1)...(131) wild-type rat intestinal fatty acid binding protein
# B10: L2P12C5: FABP probe, substitutions M18I G31I F55M A73I vs SEQ ID NO: 2 (protein, listed as Rattus norvegicus)
# chain: B1 chain with G31I, G55M, M73I
# modifications: PEPTIDE (1)...(131) wild-type rat intestinal fatty acid binding protein
# B11: L2P8B8: FABP probe, substitution A73F vs SEQ ID NO: 2 (protein, listed as Rattus norvegicus)
# chain: B1 chain with I18M, G55F, M73F
# modifications: PEPTIDE (1)...(131) wild-type rat intestinal fatty acid binding protein
# B12: L2P23A4: FABP probe, substitutions M18V G31I F55L A73V vs SEQ ID NO: 2 (protein, listed as Rattus norvegicus)
# chain: B1 chain with I18V, G31I, G55L, M73V
# modifications: PEPTIDE (1)...(131) wild-type rat intestinal fatty acid binding protein
# B13: L2P16A3: FABP probe, substitutions M18I G31L A73G vs SEQ ID NO: 2 (protein, listed as Rattus norvegicus)
# chain: B1 chain with G31L, G55F, M73G
# modifications: PEPTIDE (1)...(131) wild-type rat intestinal fatty acid binding protein
# B14: L2P2E11: FABP probe, substitutions M18I G31F vs SEQ ID NO: 2 (protein, listed as Rattus norvegicus)
# chain: B1 chain with G31F, G55F, M73A
# modifications: PEPTIDE (1)...(131) wild-type rat intestinal fatty acid binding protein
# B15: L2P18H12: FABP probe, substitutions M18I G31V A73G vs SEQ ID NO: 2 (protein, listed as Rattus norvegicus)
# chain: B1 chain with G31V, G55F, M73G
# modifications: PEPTIDE (1)...(131) wild-type rat intestinal fatty acid binding protein
# B16: L2P21C1: FABP probe, substitutions M18I G31Y A73V vs SEQ ID NO: 2 (protein, listed as Rattus norvegicus)
# chain: B1 chain with G31Y, G55F, M73V
# modifications: PEPTIDE (1)...(131) wild-type rat intestinal fatty acid binding protein
# B17: L2P22G6: FABP probe, substitutions M18I G31Y A73G vs SEQ ID NO: 2 (protein, listed as Rattus norvegicus)
# chain: B1 chain with G31Y, G55F, M73G
# modifications: PEPTIDE (1)...(131) wild-type rat intestinal fatty acid binding protein
# Assay: Probe fluorescence ratio response to palmitoleic acid relative to ADIFAB2
# Type: binding
# Conditions: Table 5
# How it was run: (§1)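 Each fatty acid's response was expressed relative to ADIFAB2, the rI-FABP-L72A probe, as ΔR/ΔRreference. ΔR is the change in the background-corrected two-wavelength intensity ratio R=Fλ1/Fλ2 from its analyte-free baseline R0. Emission was read near about 420-480 nm for unbound and about 495-580 nm for FFA-bound probe.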
row,Molecule,ΔR/DRAΔ2 POA
1,B1,1.2
2,B2,1.4
3,B3,1.6
4,B4,2.0
5,B5,3.1
6,B6,1.2
7,B7,1.3
8,B8,1.3
9,B9,1.4
10,B10,1.9
11,B11,2.4
12,B12,2.8
13,B13,1.4
14,B14,2.6
15,B15,2.1
16,B16,2.9
17,B17,2.6

# Assay: Probe fluorescence ratio response to linoleic acid relative to ADIFAB2
# Type: binding
# Conditions: Table 5
# How it was run: as §1
row,Molecule,ΔR/DRAΔ2 LA
1,B1,1.1
2,B2,1.1
3,B3,1.3
4,B4,1.6
5,B5,2.6
6,B6,1.5
7,B7,0.8
8,B8,1.1
9,B9,1.0
10,B10,1.5
11,B11,1.2
12,B12,3.1
13,B13,1.1
14,B14,2.5
15,B15,1.7
16,B16,3.4
17,B17,2.6

# Assay: Probe fluorescence ratio response to oleic acid relative to ADIFAB2
# Type: binding
# Conditions: Table 5
# How it was run: as §1
row,Molecule,ΔR/DRAΔ2 OA
1,B1,0.6
2,B2,0.6
3,B3,0.8
4,B4,0.9
5,B5,1.9
6,B6,1.4
7,B7,0.4
8,B8,0.6
9,B9,0.6
10,B10,0.8
11,B11,0.6
12,B12,2.3
13,B13,0.6
14,B14,1.6
15,B15,1.0
16,B16,2.7
17,B17,1.6

# Assay: Probe fluorescence ratio response to stearic acid relative to ADIFAB2
# Type: binding
# Conditions: Table 5
# How it was run: as §1
row,Molecule,ΔR/DRAΔ2 SA
1,B1,0.4
2,B2,0.3
3,B3,0.4
4,B4,0.4
5,B5,0.7
6,B6,1.7
7,B7,0.2
8,B8,0.3
9,B9,0.4
10,B10,0.4
11,B11,0.4
12,B12,1.2
13,B13,0.3
14,B14,0.8
15,B15,0.5
16,B16,1.6
17,B17,0.9

# Assay: Probe fluorescence ratio response to arachidonic acid relative to ADIFAB2
# Type: binding
# Conditions: Table 5; Arachidonic acid
# How it was run: as §1
row,Molecule,ΔR/DRAΔ2 AA
1,B1,0.9
2,B2,1.0
3,B3,1.0
4,B4,1.1
5,B5,1.8
6,B6,1.8
7,B7,0.6
8,B8,0.8
9,B9,0.9
10,B10,1.3
11,B11,1.1
12,B12,2.8
13,B13,1.0
14,B14,1.9
15,B15,1.3
16,B16,2.8
17,B17,1.8

# Assay: Probe fluorescence ratio response to palmitic acid relative to ADIFAB2
# Type: binding
# Conditions: Table 5
# How it was run: as §1
row,Molecule,ΔR/DRAΔ2 PA
1,B1,1.1
2,B2,1.1
3,B3,1.3
4,B4,1.5
5,B5,2.2
6,B6,1.0
7,B7,1.0
8,B8,1.3
9,B9,1.0
10,B10,1.5
11,B11,1.1
12,B12,1.9
13,B13,1.1
14,B14,2.0
15,B15,1.6
16,B16,2.0
17,B17,1.9

# Assay: Probe fluorescence ratio response to linolenic acid relative to ADIFAB2
# Type: binding
# Conditions: Table 5
# How it was run: as §1
row,Molecule,ΔR/DRAΔ2 LNA
1,B1,1.3
2,B2,1.4
3,B3,1.6
4,B4,1.9
5,B5,2.8
6,B6,1.2
7,B7,1.2
8,B8,1.5
9,B9,1.2
10,B10,1.7
11,B11,1.8
12,B12,2.6
13,B13,1.5
14,B14,2.8
15,B15,1.9
16,B16,3.1
17,B17,2.7
